tested on: Escherichia coli TOP10; test: shrunken log2 fold change of peptide-encoding DNA abundance (4.5 h post-induction vs induction); higher = less antimicrobial activity (less host growth inhibition); conditions: time post-induction: 4.5 h; library: site-saturation at positions 5, 18, 19, 20
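Further: peptides expressed intracellularly from a pBAD plasmid library in pooled LB shake-flask culture, induced with 0.3% L-arabinose, DNA abundance read by NGS, three biological replicates, DESeq2 with apeglm shrinkage.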

| Sequence | shrunken log2 fold change |
| --- | --- |
| RRIRVRPPRLPRPRPRPAQAPRP | 0.74 |
| RRIRIRPPRLPRPRPRPIHWPRP | -0.0782 |
| RRIRLRPPRLPRPRPRPPISPRP | 0.0176 |
| RRIRWRPPRLPRPRPRPEMDPRP | 0.7 |
| RRIRWRPPRLPRPRPRPNFRPRP | 0.298 |
| RRIRPRPPRLPRPRPRPQVWPRP | 0.202 |
| RRIRLRPPRLPRPRPRPTDTPRP | -0.304 |
| RRIRKRPPRLPRPRPRPEQDPRP | 0.0646 |
| RRIRERPPRLPRPRPRPIWGPRP | -0.0579 |
| RRIRMRPPRLPRPRPRPACKPRP | 0.484 |
| RRIRLRPPRLPRPRPRPQCAPRP | 0.228 |
| RRIRFRPPRLPRPRPRPSEDPRP | 0.00214 |
| RRIRMRPPRLPRPRPRPTDDPRP | 0.637 |
| RRIRTRPPRLPRPRPRPWYHPRP | -0.464 |
| RRIRQRPPRLPRPRPRPQPYPRP | -0.0274 |
| RRIRRRPPRLPRPRPRPKCMPRP | -0.172 |
| RRIRDRPPRLPRPRPRPGYSPRP | -0.591 |
| RRIRPRPPRLPRPRPRPGVIPRP | -0.321 |
| RRIRVRPPRLPRPRPRPDKFPRP | 0.0677 |
| RRIRTRPPRLPRPRPRPQIPPRP | -0.235 |
| RRIRLRPPRLPRPRPRPMHKPRP | -0.449 |
| RRIRGRPPRLPRPRPRPPDKPRP | 1.17 |
| RRIRIRPPRLPRPRPRPFQKPRP | -0.0135 |
| RRIRERPPRLPRPRPRPKERPRP | 0.547 |
| RRIRMRPPRLPRPRPRPQGHPRP | 0.0616 |

| Sequence | shrunken log2 fold change |
| --- | --- |
| RRIRHRPPRLPRPRPRPHEMPRP | -0.257 |
| RRIRERPPRLPRPRPRPINYPRP | -0.286 |
| RRIRDRPPRLPRPRPRPASPPRP | 0.384 |
| RRIRNRPPRLPRPRPRPFAAPRP | 0.0928 |
| RRIRARPPRLPRPRPRPDTSPRP | 0.435 |
| RRIRQRPPRLPRPRPRPWYQPRP | -0.000894 |
| RRIRTRPPRLPRPRPRPICIPRP | -0.196 |
| RRIRTRPPRLPRPRPRPGMQPRP | -0.0474 |
| RRIRRRPPRLPRPRPRPWHYPRP | -0.0356 |
| RRIRKRPPRLPRPRPRPSHCPRP | -0.578 |
| RRIRTRPPRLPRPRPRPCDSPRP | -0.0585 |
| RRIRERPPRLPRPRPRPKCTPRP | -0.882 |
| RRIRERPPRLPRPRPRPLPNPRP | -0.658 |
| RRIRVRPPRLPRPRPRPRQLPRP | 0.276 |
| RRIRDRPPRLPRPRPRPKLIPRP | 0.088 |
| RRIRRRPPRLPRPRPRPYKMPRP | 0.187 |
| RRIRMRPPRLPRPRPRPTGAPRP | 1.25 |
| RRIRIRPPRLPRPRPRPKRWPRP | -0.0451 |
| RRIRPRPPRLPRPRPRPKVYPRP | -0.292 |
| RRIRLRPPRLPRPRPRPWAFPRP | 0.00977 |
| RRIRWRPPRLPRPRPRPTREPRP | 0.241 |
| RRIRRRPPRLPRPRPRPETTPRP | 1.09 |
| RRIRKRPPRLPRPRPRPVMLPRP | 0.109 |
| RRIRWRPPRLPRPRPRPSFGPRP | -0.0482 |
| RRIRARPPRLPRPRPRPYGQPRP | -0.163 |

| Sequence | shrunken log2 fold change |
| --- | --- |
| RRIRPRPPRLPRPRPRPDITPRP | -0.783 |
| RRIRRRPPRLPRPRPRPACSPRP | 0.377 |
| RRIRTRPPRLPRPRPRPSRVPRP | 0.526 |
| RRIRCRPPRLPRPRPRPCWDPRP | -0.294 |
| RRIRERPPRLPRPRPRPDFPPRP | 0.00147 |
| RRIRDRPPRLPRPRPRPYDNPRP | -0.307 |
| RRIRFRPPRLPRPRPRPDKLPRP | -0.505 |
| RRIRMRPPRLPRPRPRPIIDPRP | -0.399 |
| RRIRGRPPRLPRPRPRPEQAPRP | 1.83 |
| RRIRIRPPRLPRPRPRPQKHPRP | -0.46 |
| RRIRYRPPRLPRPRPRPTGYPRP | -1.16 |
| RRIRPRPPRLPRPRPRPEWYPRP | 0.203 |
| RRIRSRPPRLPRPRPRPVARPRP | 0.148 |
| RRIRERPPRLPRPRPRPECNPRP | 0.0631 |
| RRIRDRPPRLPRPRPRPWNNPRP | -0.0248 |
| RRIRLRPPRLPRPRPRPMFRPRP | -0.162 |
| RRIRTRPPRLPRPRPRPPNEPRP | 0.207 |
| RRIRGRPPRLPRPRPRPSNAPRP | 0.216 |
| RRIRYRPPRLPRPRPRPWPRPRP | 0.209 |
| RRIRYRPPRLPRPRPRPRRTPRP | -0.202 |
| RRIRVRPPRLPRPRPRPKTPPRP | 0.334 |
| RRIRFRPPRLPRPRPRPEEPPRP | 0.248 |
| RRIRQRPPRLPRPRPRPESRPRP | -0.00904 |
| RRIRSRPPRLPRPRPRPIPLPRP | -0.115 |
| RRIRSRPPRLPRPRPRPVCKPRP | -0.0891 |

| Sequence | shrunken log2 fold change |
| --- | --- |
| RRIRNRPPRLPRPRPRPLSVPRP | -0.21 |
| RRIRNRPPRLPRPRPRPKQNPRP | 0.0598 |
| RRIRKRPPRLPRPRPRPGGKPRP | 0.123 |
| RRIRSRPPRLPRPRPRPQNAPRP | -0.427 |
| RRIRFRPPRLPRPRPRPTMRPRP | 0.605 |
| RRIRFRPPRLPRPRPRPAECPRP | -0.16 |
| RRIRFRPPRLPRPRPRPYISPRP | -0.295 |
| RRIRPRPPRLPRPRPRPKMFPRP | 0.149 |
| RRIRLRPPRLPRPRPRPIFEPRP | -0.0366 |
| RRIRGRPPRLPRPRPRPNDRPRP | 0.288 |
| RRIRRRPPRLPRPRPRPHVMPRP | 1.55 |
| RRIRYRPPRLPRPRPRPSYTPRP | -1.38 |
| RRIRKRPPRLPRPRPRPMFLPRP | -0.0587 |
| RRIRFRPPRLPRPRPRPSPKPRP | 0.188 |
| RRIRTRPPRLPRPRPRPTMKPRP | -0.334 |
| RRIRSRPPRLPRPRPRPVRHPRP | -0.0103 |
| RRIRYRPPRLPRPRPRPQNFPRP | -0.00184 |
| RRIRDRPPRLPRPRPRPWSKPRP | -0.203 |
| RRIRDRPPRLPRPRPRPAFHPRP | -0.193 |
| RRIRVRPPRLPRPRPRPTDHPRP | 0.00915 |
| RRIRERPPRLPRPRPRPFSPPRP | -0.745 |
| RRIRVRPPRLPRPRPRPAIEPRP | 0.0433 |
| RRIRKRPPRLPRPRPRPYVMPRP | -0.223 |
| RRIRRRPPRLPRPRPRPTQEPRP | 0.212 |
| RRIRIRPPRLPRPRPRPPEDPRP | 0.324 |

| Sequence | shrunken log2 fold change |
| --- | --- |
| RRIRLRPPRLPRPRPRPVLWPRP | 0.389 |
| RRIRMRPPRLPRPRPRPDEIPRP | 2.86 |
| RRIRQRPPRLPRPRPRPLDDPRP | -0.0837 |
| RRIRTRPPRLPRPRPRPQHWPRP | 0.08 |
| RRIRARPPRLPRPRPRPMFVPRP | -0.134 |
| RRIRDRPPRLPRPRPRPLFWPRP | 0.516 |
| RRIRQRPPRLPRPRPRPNWRPRP | 0.107 |
| RRIRARPPRLPRPRPRPQYAPRP | 0.0596 |
| RRIRNRPPRLPRPRPRPACDPRP | -0.00482 |
| RRIRKRPPRLPRPRPRPEFIPRP | 0.146 |
| RRIRGRPPRLPRPRPRPHMFPRP | 0.445 |
| RRIRNRPPRLPRPRPRPPYCPRP | 0.0775 |
| RRIRFRPPRLPRPRPRPVFKPRP | -0.57 |
| RRIRMRPPRLPRPRPRPIHPPRP | -0.0207 |
| RRIRFRPPRLPRPRPRPVTRPRP | -0.0263 |
| RRIRSRPPRLPRPRPRPSIHPRP | -0.479 |
| RRIRRRPPRLPRPRPRPMPHPRP | -0.124 |
| RRIRERPPRLPRPRPRPSECPRP | -0.592 |
| RRIRRRPPRLPRPRPRPLNHPRP | -0.0852 |
| RRIRNRPPRLPRPRPRPTWIPRP | -0.0601 |
| RRIRQRPPRLPRPRPRPASIPRP | -0.0578 |
| RRIRCRPPRLPRPRPRPSVCPRP | 0.0114 |
| RRIRIRPPRLPRPRPRPCAQPRP | -0.485 |
| RRIRMRPPRLPRPRPRPGGLPRP | 0.818 |
| RRIRHRPPRLPRPRPRPLYAPRP | -0.402 |

| Sequence | shrunken log2 fold change |
| --- | --- |
| RRIRKRPPRLPRPRPRPNYEPRP | -0.0635 |
| RRIRLRPPRLPRPRPRPIARPRP | -0.0553 |
| RRIRGRPPRLPRPRPRPNVRPRP | 0.265 |
| RRIRIRPPRLPRPRPRPFNGPRP | -0.211 |
| RRIRWRPPRLPRPRPRPELPPRP | 0.243 |
| RRIRKRPPRLPRPRPRPQRWPRP | 0.0222 |
| RRIRQRPPRLPRPRPRPHFFPRP | -0.0162 |
| RRIRKRPPRLPRPRPRPNFGPRP | 0.252 |
| RRIRQRPPRLPRPRPRPLTNPRP | -0.483 |
| RRIRPRPPRLPRPRPRPEMNPRP | -0.381 |
| RRIRFRPPRLPRPRPRPFYRPRP | -0.202 |
| RRIRARPPRLPRPRPRPHGKPRP | 0.175 |
| RRIRWRPPRLPRPRPRPDGYPRP | -0.0244 |
| RRIRFRPPRLPRPRPRPEETPRP | 0.00709 |
| RRIRPRPPRLPRPRPRPLAYPRP | -0.074 |
| RRIRRRPPRLPRPRPRPCNWPRP | -0.0134 |
| RRIRMRPPRLPRPRPRPNDYPRP | -0.103 |
| RRIRRRPPRLPRPRPRPDHSPRP | 0.0322 |
| RRIRTRPPRLPRPRPRPEIHPRP | -0.0341 |
| RRIRCRPPRLPRPRPRPDMWPRP | 0.104 |
| RRIRRRPPRLPRPRPRPYLRPRP | 0.0234 |
| RRIRWRPPRLPRPRPRPKPFPRP | 0.323 |
| RRIRPRPPRLPRPRPRPHSCPRP | -0.11 |
| RRIRARPPRLPRPRPRPINSPRP | -0.213 |
| RRIRIRPPRLPRPRPRPQMKPRP | -0.747 |

— the supplement of paper PMC9112550, “Optimization of the antimicrobial peptide Bac7 by deep mutational scanning” (BMC Biology, 2022)
